Measurements from the RNAGym collection of RNA variant scans (doi:10.7554/elife.80360).

B1: Twister Ribozyme (parent)
chain: AACACUGCCAAUGCCGGUCCCAAGCCCGGAUAAAAGUGGAGGGGGCGG

Variants of: B1
Assay: self-cleavage, relative activity (ratio to wild type); higher = more cleavage; co-transcriptional

Variant | self-cleavage
AACACUGCCGAUGCCGGUCCCAAGCCCGGAUAAAAGUGGAAGGGGCGG [A10G G41A] | 0.748
AACACUGCCGAUGCCGGUCCCAAGCCCGGAUAAAAGUGGACGGGGCGG [A10G G41C] | 0.384
AACACUGCCGAUGCCGGUCCCAAGCCCGGAUAAAAGUGGAUGGGGCGG [A10G G41U] | 0.781
AACACUGCCCAUGCCGGUCCUAAGCCCGGAUAAAAGUGGAGGGGGCGG [A10C C21U] | 0.122
AACACUGCCCAUGCCGGUCCAAAGCCCGGAUAAAAGUGGAGGGGGCGG [A10C C21A] | 0.124
AACACUGCCCAUGCCGGUCCCAAGCCCGGAUAAAAGGGGAGGGGGCGG [A10C U37G] | 0.692
AACACUGCCCAUGCCGGUCCCAAGCCCGGAUAAAAGAGGAGGGGGCGG [A10C U37A] | 0.881
AACACUGCCGAUGCCGGUCCCAAGCGCGGAUAAAAGUGGAGGGGGCGG [A10G C26G] | 0.354
AACACUGCCGAUGCCGGUCCCAAGCCCGAAUAAAAGUGGAGGGGGCGG [A10G G29A] | 1.09
AACACUGCCGUUGCCGGUCCCAAGCCCGGAUAAAAGUGGAGGGGGCGG [A10G A11U] | 1.09
AACACUGCCGCUGCCGGUCCCAAGCCCGGAUAAAAGUGGAGGGGGCGG [A10G A11C] | 0.801
AACACUGCCGAUGCCGGUCCCAAGCCCGGAGAAAAGUGGAGGGGGCGG [A10G U31G] | 0.994
AACACUGCCGAUGCCGGUCCCAAGCCCGGAAAAAAGUGGAGGGGGCGG [A10G U31A] | 0.696
AACACUGCCGAUGCCGGUCCCAAGCCCGGACAAAAGUGGAGGGGGCGG [A10G U31C] | 0.817
AACACUGCCUGUGCCGGUCCCAAGCCCGGAUAAAAGUGGAGGGGGCGG [A10U A11G] | 1.09
AACACUGCCUCUGCCGGUCCCAAGCCCGGAUAAAAGUGGAGGGGGCGG [A10U A11C] | 1.03
AACACUGCCUUUGCCGGUCCCAAGCCCGGAUAAAAGUGGAGGGGGCGG [A10U A11U] | 1.14
AACACUGCCGAUGCCGGUCCCAAGCCCGGAUAAAAGUGCAGGGGGCGG [A10G G39C] | 0.119
AACACUGCCGAUGCCGGUCCCAAGCCCGGAUAAAAGUGUAGGGGGCGG [A10G G39U] | 0.287
AACACUGCCUAUGCCGGUCCCAAGCCCGGAUAAAAGUGGAGGGGGCGG [A10U] | 0.982
AACACUGCCGAUGCCGGUCCCAAGCCCGGAUAAAAGUGGAGGGGGCGG [A10G] | 1.02
AACACUGCCCAUGCCGGUCACAAGCCCGGAUAAAAGUGGAGGGGGCGG [A10C C20A] | 0.199
AACACUGCCCAUGCCGGUCCCAAGCACGGAUAAAAGUGGAGGGGGCGG [A10C C26A] | 0.664
AACACUGCCCAUGCCGGUCCCAAGCGCGGAUAAAAGUGGAGGGGGCGG [A10C C26G] | 0.175
AACACUGCCGAUGCCGGUCCCAAGCCCGGAUAAAAGUGGAGGGGGUGG [A10G C46U] | 1.02
AACACUGCCCAUGCCGGUCCCAAGCCCGGAUAAAAGUGGAGGGCGCGG [A10C G44C] | 0.867
AACACUGCCCAUGCCGGUCCCAAGCCCGGAUAAAAGUGGAGGGAGCGG [A10C G44A] | 0.932

Variant | self-cleavage
AACACUGCCGAUGCCGGUCCUAAGCCCGGAUAAAAGUGGAGGGGGCGG [A10G C21U] | 0.162
AACACUGCCGAUGCCGGUCCCAAACCCGGAUAAAAGUGGAGGGGGCGG [A10G G24A] | 0.178
AACACUGCCCAUGACGGUCCCAAGCCCGGAUAAAAGUGGAGGGGGCGG [A10C C14A] | 1.05
AACACUGCCCAUGCCGCUCCCAAGCCCGGAUAAAAGUGGAGGGGGCGG [A10C G17C] | 0.125
AACACUGCCCAUGCCGUUCCCAAGCCCGGAUAAAAGUGGAGGGGGCGG [A10C G17U] | 0.408
AACACUGCCCAUGCCGAUCCCAAGCCCGGAUAAAAGUGGAGGGGGCGG [A10C G17A] | 0.391
AACACUGCCCAUGCCGGUCCCAAACCCGGAUAAAAGUGGAGGGGGCGG [A10C G24A] | 0.0991
AACACUGCCCAUGCCGGUCCCAAUCCCGGAUAAAAGUGGAGGGGGCGG [A10C G24U] | 0.0955
AACACUGCCGAUGCCGGUCCCAAGCCCGGAUAAAAGUGGAGAGGGCGG [A10G G42A] | 0.509
AACACUGCCGAGGCCGGUCCCAAGCCCGGAUAAAAGUGGAGGGGGCGG [A10G U12G] | 1.07
AACACUGCCGAAGCCGGUCCCAAGCCCGGAUAAAAGUGGAGGGGGCGG [A10G U12A] | 1.03
AACACUGCCCAUGCCGGUCCCAAGCCCGGAUAAAAGUGGAGGGGGAGG [A10C C46A] | 0.898
AACACUGCCCAUGCCGGUCCCAAGCCCGGAUAAAAGUGGAGGGGGUGG [A10C C46U] | 0.839
AACACUGCCGAUGCCGGUCCCAAGCCCGGAUAAGAGUGGAGGGGGCGG [A10G A34G] | 0.888
AACACUGCCGAUGCCGGUCCCAAGCCCGGAUAAAAGUGGAGGGGGCGC [A10G G48C] | 1.2
AACACUGCCCAUGCCGGUCCCAAGCCCGGAUAAAAGUGGCGGGGGCGG [A10C A40C] | 0.253
AACACUGCCCAUGCCGGUCCCAAGCCCGGAUAAAAGUGGAGGGGGCAG [A10C G47A] | 0.834
AACACUGCCCAUGCCGGUCCCAAGCCCGGAUAAAAGUGGAGUGGGCGG [A10C G42U] | 0.26
AACACUGCCGAUGCCGGUCCCAAGCCCGGAUAAAAGUGGAGGGGACGG [A10G G45A] | 1.13
AACACUGCCGAUGCCGGUCCCAAGCCCGGAUAAAAGUGGAGGGGUCGG [A10G G45U] | 0.883
AACACUGCCGAUGCCGGUCCCAAGCCGGGAUAAAAGUGGAGGGGGCGG [A10G C27G] | 0.105
AACACUGCCGAUGCCGGUCCCAAGCCAGGAUAAAAGUGGAGGGGGCGG [A10G C27A] | 0.682
AACACUGCCGAUGCCGGUCCCAUGCCCGGAUAAAAGUGGAGGGGGCGG [A10G A23U] | 0.92
AACACUGCCGAUGCCGGUCCCAAGCCCGGGUAAAAGUGGAGGGGGCGG [A10G A30G] | 0.897
AACACUGCCGAUGCCGGUCCCAAGCCCGGAUAAAAGUGGAGGGGGCUG [A10G G47U] | 1.01
AACACUGCCGAUGCCGGUCCCAAGCCCGGAUAAAGGUGGAGGGGGCGG [A10G A35G] | 0.92
AACACUGCCGAUGCCGGUCCCAAGACCGGAUAAAAGUGGAGGGGGCGG [A10G C25A] | 0.139
